Literature values as cited in publication PMC3774674.

Target: E-cadherin EC12 (Mus musculus) (UniProt P09803)

- Kd: 98.6 µM
Substance: E-cadherin EC12 (from UniProt P09803)
